Source: patent publication US20140329706A1, “AFFINITY TAGS, AND RELATED AFFINITY LIGANDS, ENGINEERED PROTEINS, MODIFIED SUPPORTS, COMPOSITIONS, METHODS AND SYSTEMS” (CALIFORNIA INSTITUTE OF TECHNOLOGY, priority 2013, published 2014)

Biological target: T1, PSD-95 PDZ1-PDZ2 (Mus musculus, UniProt Q62108)
T1 construct: HaloTag-PDZ1+PDZ2 fusion protein (residues 61 to 249 of Mus musculus PSD-95); HaloTag (N); made in house
Test: Binding of cypin to PSD-95 PDZ1-PDZ2 affinity resin
Source text: An affinity column was used substituted with a HaloTag-PDZ1+PDZ2 fusion protein (residues 61 to 249 of Mus musculus PSD-95) to purify heterologously expressed human cypin. Cypin was expressed in E. coli either as the free protein or fused to an N-terminal MBP, and purified from the bacterial supernate on the PDZ1-PDZ2 Domain-Affinity Resin. Both cypin and MBP-cypin were purified to >99% homogeneity.
For the experiment, full length cypin (guanine deaminase, Homo sapiens: AA 1-454) or MBP-cypin fusion proteins were expressed in BL21(DE3) E. coli cells. Single colonies of BL21(DE3) cells harboring pJExpress414 plasmids containing cypin or MBP-cypin genes were grown overnight at 37° C. in 5 ml of lysogeny broth (LB) (Cat. No. L9110, Teknova, Hollister, Calif.) supplemented with 100 ug/ml carbenicillin. […] Bacterial cell pellets (0.4-2.5 grams) containing cypin or MBP-cypin were resuspended in 5 ml/g cell paste of BugBuster Lysis Buffer [1× BugBuster (Cat. No. 70921, EMD Millipore, Billerica Mass.), 50 mM HEPES, 150 mM NaCl, 5 mM TCEP, 0.5 mM EDTA, 10 mM MgCl2, 2 mM PMSF, Complete Protease Inhibitor supplemented with 25 U/ml Benzonase and 10 U/ml ReadyLyse]. […] Eluted protein was analyzed on 4-12% bis-tris SDS-PAGE gels and proteins were detected by Gel Code Blue staining.

T1 sequence (Q62108 61-249): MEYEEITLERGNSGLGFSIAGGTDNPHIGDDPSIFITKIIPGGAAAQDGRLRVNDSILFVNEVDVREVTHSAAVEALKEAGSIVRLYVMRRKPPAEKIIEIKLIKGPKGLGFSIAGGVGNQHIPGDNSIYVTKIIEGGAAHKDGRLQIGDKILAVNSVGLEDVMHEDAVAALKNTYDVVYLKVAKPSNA

Molecule | binding to solid support PDZ1 and PDZ2 domains
untagged cypin: full length cypin (guanine deaminase, Homo sapiens: AA 1-454) (protein) MCAAQMPPLAHIFRGTFVHSTWTCPMEVLRDHLLGVSDSGKIVFLEEASQQEKLAKEWCFKPCEIRELSHHEFFMPGLVDTHIHASQYSFAGSSIDLPLLEWLTKYTFPAEHRFQNIDFAEEVYTRVVRRTLKNGTTTACYFATIHTDSSLLLADITDKFGQRAFVGKVCMDLNDTFPEYKETTEESIKETERFVSEMLQKNYSRVKPIVTPRFSLSCSETLMGELGNIAKTRDLHIQSHISENRDEVEAVKNLYPSYKNYTSVYDKNNLLTNKTVMAHGCYLSAEELNVFHERGASIAHCPNSNLSLSSGFLNVLEVLKHEVKIGLGTDVAGGYSYSMLDAIRRAVMVSNILLINKVNEKSLTLKEVFRLATLGGSQALGLDGEIGNFEVGKEFDAILINPKASDSPIDLFYGDFFGDISEAVIQKFLYLGDDRNIEEVYVGGKQVVPFSSSV | able to bind with strong affinity
MBP-cypin: cypin fused to an N-terminal maltose binding protein (protein, left off: large carriers) MCAAQMPPLAHIFRGTFVHSTWTCPMEVLRDHLLGVSDSGKIVFLEEASQQEKLAKEWCFKPCEIRELSHHEFFMPGLVDTHIHASQYSFAGSSIDLPLLEWLTKYTFPAEHRFQNIDFAEEVYTRVVRRTLKNGTTTACYFATIHTDSSLLLADITDKFGQRAFVGKVCMDLNDTFPEYKETTEESIKETERFVSEMLQKNYSRVKPIVTPRFSLSCSETLMGELGNIAKTRDLHIQSHISENRDEVEAVKNLYPSYKNYTSVYDKNNLLTNKTVMAHGCYLSAEELNVFHERGASIAHCPNSNLSLSSGFLNVLEVLKHEVKIGLGTDVAGGYSYSMLDAIRRAVMVSNILLINKVNEKSLTLKEVFRLATLGGSQALGLDGEIGNFEVGKEFDAILINPKASDSPIDLFYGDFFGDISEAVIQKFLYLGDDRNIEEVYVGGKQVVPFSSSV | able to bind with strong affinity
